How the values were obtained:
[1] = target: T1, recombinant human TACE catalytic domain (Arg215-Val477-GlySer-His6) (human, UniProt P78536 215-477); assay: SPR (Biacore T100, 37 C): D1(A12) FAb amine-coupled to a CM5 chip, TACE catalytic domain injected (traces labelled 1 to 15 nM) [panel C, lower left]
T1 construct: The methods' limits are used here; also called isolated TACE catalytic domain
Method: (§1) Results represent the mean values of blank-subtracted technical triplicates per concentration variable. All experiments were performed on a Biacore T100 (GE Healthcare) at 37° C. with a flow-rate of […]. Binding constants were calculated using Biacore T100 Evaluation Software (1:1 binding model; Rmax <200 RU; tc >1×10⁸; Chi²<0.5 RU².

[2] = target: T2, recombinant human TACE ectodomain (Arg215-Arg651) (human, UniProt P78536 215-651); assay: cell-based or functional assay
T2 sequence (P78536 215-651): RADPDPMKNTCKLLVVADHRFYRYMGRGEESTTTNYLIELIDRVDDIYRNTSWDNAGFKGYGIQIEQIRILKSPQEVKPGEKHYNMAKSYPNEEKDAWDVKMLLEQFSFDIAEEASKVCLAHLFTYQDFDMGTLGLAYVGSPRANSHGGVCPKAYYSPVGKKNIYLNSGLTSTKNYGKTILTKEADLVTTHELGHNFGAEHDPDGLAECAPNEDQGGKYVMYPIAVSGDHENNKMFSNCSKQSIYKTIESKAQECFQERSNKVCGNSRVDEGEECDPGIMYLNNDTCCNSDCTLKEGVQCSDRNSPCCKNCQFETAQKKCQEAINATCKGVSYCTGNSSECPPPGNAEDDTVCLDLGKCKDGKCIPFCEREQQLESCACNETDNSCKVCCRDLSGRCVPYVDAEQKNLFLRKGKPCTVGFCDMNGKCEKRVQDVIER

[3] = target: T1, recombinant human TACE catalytic domain …; assay: cell-based or functional assay
[4] = target: T2, recombinant human TACE ectodomain …; assay: inverted titration ELISA; ratio of the EC50 for the catalytic domain to the EC50 for the ectodomain
[5] = target: T2, recombinant human TACE ectodomain …; assay: inverted titration ELISA
[6] = target: T1, recombinant human TACE catalytic domain …; assay: inverted titration ELISA
[7] = target: T2, recombinant human TACE ectodomain …; assay: SPR (Biacore T100, 37 C); FAb amine-coupled to CM5 chip, titrated TACE injected; 1:1 model
Method: as §1

[8] = target: T1, recombinant human TACE catalytic domain …; assay: as above
Method: as §1

[9] = target: T2, recombinant human TACE ectodomain …; assay: SPR (Biacore T100, 37 C): D1(A12) FAb amine-coupled to a CM5 chip, TACE ectodomain injected (traces labelled 0.25 to 6 nM) [panel C, lower right]
Method: as §1

[10] = target: T2, recombinant human TACE ectodomain …; assay: cell-based or functional assay; remark: listed apart in the source
[11] = target: T1, recombinant human TACE catalytic domain …; assay: cell-based or functional assay; remark: listed apart in the source
[12] = target: T2, recombinant human TACE ectodomain …; assay: SPR; ratio of the KD for the isolated catalytic domain to the KD for the ectodomain
Method: as §1

[13] = target: T2, recombinant human TACE ectodomain …; assay: competition ELISA: 100 nM immobilised TACE ectodomain pre-incubated with titrated D1(A12) FAb, then probed for N-TIMP-3 binding [panel A]
cell surface TACE = cell surface TACE (human, UniProt P78536 215-824); assay: cell-based or functional assay
Chain of cell surface TACE (P78536 215-824): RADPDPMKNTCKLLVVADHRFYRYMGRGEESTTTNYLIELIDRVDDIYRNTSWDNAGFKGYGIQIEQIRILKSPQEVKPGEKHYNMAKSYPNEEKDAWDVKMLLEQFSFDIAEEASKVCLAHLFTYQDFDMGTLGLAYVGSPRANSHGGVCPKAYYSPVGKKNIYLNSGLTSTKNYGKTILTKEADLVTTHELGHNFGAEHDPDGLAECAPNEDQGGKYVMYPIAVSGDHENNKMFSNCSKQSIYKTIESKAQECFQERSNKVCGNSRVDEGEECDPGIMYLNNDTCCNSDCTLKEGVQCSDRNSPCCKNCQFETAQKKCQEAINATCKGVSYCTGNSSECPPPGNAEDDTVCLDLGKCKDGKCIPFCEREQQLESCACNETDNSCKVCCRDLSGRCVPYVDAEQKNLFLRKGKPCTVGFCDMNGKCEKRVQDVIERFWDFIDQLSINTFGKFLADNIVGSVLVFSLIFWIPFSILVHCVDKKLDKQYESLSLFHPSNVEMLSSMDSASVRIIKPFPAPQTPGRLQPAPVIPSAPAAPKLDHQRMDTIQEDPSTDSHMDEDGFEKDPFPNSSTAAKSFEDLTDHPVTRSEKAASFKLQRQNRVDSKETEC

[14] = target: T2, recombinant human TACE ectodomain …; assay: SPR (Biacore T100, 37 C): N-TIMP-3 amine-coupled to a CM5 chip, TACE ectodomain injected (traces labelled 5 to 50 nM) [panel C, upper right]
Method: as §1

[15] = target: T2, recombinant human TACE ectodomain …; assay: competition ELISA: immobilised TACE ectodomain pre-incubated with titrated N-TIMP-3, then probed with D1(A12) FAb [panel B]
[16] = target: T1, recombinant human TACE catalytic domain …; assay: SPR (Biacore T100, 37 C): N-TIMP-3 amine-coupled to a CM5 chip, TACE catalytic domain injected (traces labelled 0.5 to 5 nM) [panel C, upper left]
Method: as §1

[17] = target: T2, recombinant human TACE ectodomain …; assay: SPR (Biacore T100, 37 C); N-TIMP-3 amine-coupled to CM5 chip, titrated TACE injected; 1:1 model
Method: as §1

[18] = target: T1, recombinant human TACE catalytic domain …; assay: as above
Method: as §1

[19] = target: recombinant human TACE ectodomain (Arg215-Arg651) (human) (UniProt P78536); assay: cell-based or functional assay
Chain of recombinant human TACE ectodomain (Arg215-Arg651) (human) (P78536 215-651): as the sequence (P78536 215-651) above

[20] = target: recombinant human TACE catalytic domain (Arg215-Val477-GlySer-His6) (human) (UniProt P78536); assay: cell-based or functional assay
Chain of recombinant human TACE catalytic domain (Arg215-Val477-GlySer-His6) (human) (P78536 other isoform, or with tags, fused parts or gaps limits assumed): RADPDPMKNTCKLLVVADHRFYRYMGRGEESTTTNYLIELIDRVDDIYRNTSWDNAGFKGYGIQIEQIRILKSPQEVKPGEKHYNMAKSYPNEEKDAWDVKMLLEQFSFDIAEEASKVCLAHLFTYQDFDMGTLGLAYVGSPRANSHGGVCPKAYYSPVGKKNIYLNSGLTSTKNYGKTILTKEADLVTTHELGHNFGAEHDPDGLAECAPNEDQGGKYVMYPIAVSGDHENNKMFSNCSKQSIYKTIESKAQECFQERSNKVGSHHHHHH

T1 sequence (P78536 other isoform, or with tags, fused parts or gaps limits assumed): as above

B1: D1(A12) FAb (Fab, V domains shown)
VH: EVQLVESGGGLVRPGGSLRLSCAASGFTFSSYAMSWVRQAPGKGLEWVSAISGSGGSTYYADSVKGRFTISRDNTKNSLYLQMTSLRADDTAFYYCVKDFGPGYGTGWFDYWGPGTLVTVSA
VL: DIQMTQSPSSLSASVGDRVTITCRASQSISSYLNWYQQKPGKAPKLLIHDASSLQSGVPSRFSGSGSGTDFTLTISSLQPEDFATYYCQQSFSIPLTFGGGTKMDIKR
notes: Expressed in E. coli periplasm, purified on Protein G; also called monovalent D1(A12) human FAb
koff [1]: 0.00058 s⁻¹
kon [1]: 110000 M⁻¹ s⁻¹
Delta (IC50 ectodomain against IC50 catalytic domain) [2]: 0.8 fold
IC50 (nM), QF-peptide assay [2]: 0.45 nM
IC50 (nM), QF-peptide assay [3]: 0.54 nM
ΔEC50 (EC50 Cat/EC50 Ecto) [4]: 12.1 fold
EC50 [5]: 0.92 nM
EC50 [6]: 11.1 nM
Kd [7]: 0.461 nM
Kd [8]: 5.21 nM
koff [9]: 0.00024 s⁻¹
kon [9]: 530000 M⁻¹ s⁻¹
IC50, cleavage of GST-TNF-α (SDS-PAGE densitometry) [10]: 73.9 nM
ΔIC50 = IC50 Ecto:N-TIMP-3 / IC50 Ecto:D1(A12), QF-peptide assay [10]: 5.75 fold
IC50, cleavage of GST-TNF-α (SDS-PAGE densitometry) [11]: 125 nM
ΔIC50 = IC50 Cat:N-TIMP-3 / IC50 Cat:D1(A12), QF-peptide assay [11]: 1.35 fold
ΔKD (KD Cat/KD Ecto) [12]: 11.3 fold
IC50 (read off the curve) [13]: ~10 nM

B2: D1(A12) human IgG1 (antibody, V domains shown)
VH: B1 VH
VL: B1 VL
Delta (IC50 N-TIMP-3 against IC50 D1(A12) IgG1), Amphiregulin, PC3 (cell surface TACE): 5.7 fold
Delta (IC50 N-TIMP-3 against IC50 D1(A12) IgG1), HB-EGF-AP, HeLa (cell surface TACE): 6 fold
Delta (IC50 N-TIMP-3 against IC50 D1(A12) IgG1), TGF-α, IGROV-1 (cell surface TACE): 4.7 fold
Delta (IC50 N-TIMP-3 against IC50 D1(A12) IgG1), TNF-α, TOV21G (cell surface TACE): 4.3 fold
Delta (IC50 N-TIMP-3 against IC50 D1(A12) IgG1), TNFR1a, IGROV-1 (cell surface TACE): 4.7 fold
Delta, mean value of the five cell shedding assays (cell surface TACE): 5.1 fold
IC50 (nM), PMA-stimulated shedding of Amphiregulin from PC3 cells (cell surface TACE): 9.3 nM
IC50 (nM), PMA-stimulated shedding of HB-EGF-AP from HeLa cells (cell surface TACE): 7.9 nM
IC50 (nM), PMA-stimulated shedding of TGF-α from IGROV-1 cells (cell surface TACE): 9.4 nM
IC50 (nM), PMA-stimulated shedding of TNF-α from TOV21G cells (cell surface TACE): 11.2 nM
IC50 (nM), mean value of the five cell shedding assays (cell surface TACE): 9.6 nM
IC50 (nM), shedding of TNFR1a from IGROV-1 cells (cell surface TACE): 10.4 nM

B3: N-TIMP-3 (other, UniProt P35625 24-144, looked up)
chain: CTCSPSHPQDAFCNSDIVIRAKVVGKKLVKEGPFGTLVYTIKQMKMYRGFTKMPHVQYIHTEASESLCGLKLEVNKYQYLLTGRVYDGKMYTGLCNFVERWDQLTLSQRKGLNYRYHLGCN
notes: domain: N-terminal fragment; also called amino-terminal domain of TIMP-3
Delta (IC50 ectodomain against IC50 catalytic domain) [2]: 5.2 fold
IC50 (nM), QF-peptide assay [2]: 3.1 nM
IC50 (nM), PMA-stimulated shedding of Amphiregulin from PC3 cells (cell surface TACE): 53.3 nM
IC50 (nM), PMA-stimulated shedding of HB-EGF-AP from HeLa cells (cell surface TACE): 47.3 nM
IC50 (nM), PMA-stimulated shedding of TGF-α from IGROV-1 cells (cell surface TACE): 44.5 nM
IC50 (nM), PMA-stimulated shedding of TNF-α from TOV21G cells (cell surface TACE): 48.5 nM
IC50 (nM), mean value of the five cell shedding assays (cell surface TACE): 48.6 nM
IC50 (nM), shedding of TNFR1a from IGROV-1 cells (cell surface TACE): 49.5 nM
IC50 (nM), QF-peptide assay [3]: 0.6 nM
koff [14]: 5.2e-05 s⁻¹
kon [14]: 7200 M⁻¹ s⁻¹
IC50 (read off the curve) [15]: ~20 nM
IC50, quenched-fluorescent (QF) peptide cleavage assay [10]: 3.2 nM
ΔKD (KD Cat/KD Ecto) [12]: 0.03 fold
koff [16]: 2.1e-05 s⁻¹
kon [16]: 100000 M⁻¹ s⁻¹
Kd [17]: 7.22 nM
Kd [18]: 0.211 nM

B4: D1(A12) scFv (scFv, part only; not given: linker and tags, not shown: small tags and cut ends)
scFv, part: EVQLVESGGGLVRPGGSLRLSCAASGFTFSSYAMSWVRQAPGKGLEWVSAISGSGGSTYYADSVKGRFTISRDNTKNSLYLQMTSLRADDTAFYYCVKDFGPGYGTGWFDYWGPGTLVTVSASDIQMTQSPSSLSASVGDRVTITCRASQSISSYLNWYQQKPGKAPKLLIHDASSLQSGVPSRFSGSGSGTDFTLTISSLQPEDFATYYCQQSFSIPLTFGGGTKMDIKR
IC50, solution-phase QF-peptide assay (wild-type scFv) [19]: 0.89 nM
IC50, solution-phase QF-peptide assay (wild-type scFv) [20]: 2.3 nM

Reference: patent US20140050738A1 (CANCER RESEARCH TECHNOLOGY, published 2014)
